# Test results as given in patent publication US12583888B2, “Bi-specific extracellular matrix binding peptides and methods of use thereof” (University of Tartu, priority 2019, dated 2026).
# No end group written: not given here.
# Columns and labels:
# [1] = test system: M21 cells; test: Cell binding and internalization of CF555-labeled AgNPs; format: cell-based; details: NRP-1-negative M21, 1 h incubation
# Experimental: (§1) U87-MG, PPC1, and M21 cells cultured on glass coverslips were incubated with CF555-labeled AgNPs at 37° C. for 1 hour, followed by washing with medium to remove background AgNPs. Etching solution freshly diluted from 0.2 M stock solutions of Na2S2O3 and K3Fe(CN)6 to 10 mM working concentration in PBS was applied to cells for 3 minutes, followed by PBS washes. The cells on coverslips were fixed with −20° C. methanol for 1 minute. The cell membrane was visualized by staining with Alexa Fluor 488-labeled wheat germ agglutinin (WGA) at 1:1000 at RT for 1 h. […] Fluoromount-G (Electron Microscopy Sciences) medium was used to mount the coverslips on microscope slides for confocal imaging.
# [2] = target: T1, fibronectin EDB-domain (Homo sapiens, UniProt P02751); test: PL3 phage binding to fibronectin EDB-domain
# T1 construct: made in house; host or cells: E. coli BL21 Rosetta 2 (DE3) pLysS
# Source text: The recovered phage was tittered and amplified for a subsequent round of selection. […] RPARPAR phage on NRP-1-coated beads was used as a positive control (Teesalu et al., 2009). Phage clones displaying heptaglycine peptide (GGGGGGG, G7 (SEQ ID NO:20)) or insert less phage clones were used as negative controls.
# [3] = test system: PC3 prostate carcinoma xenografts; details: i.v. equimolar mix, 2 h circulation
# Source text: (§2) In vivo play-off was used to evaluate systemic homing of peptide phage to xenograft tumor models. The in vitro selected candidate TNC-C binding peptides, phages displaying published tumor homing peptides, and control peptides were amplified and purified by precipitation with PEG-8000 (Sigma-Aldrich, St. Louis, MO, USA), followed by CsCl2 gradient ultracentrifugation and dialysis. The amplified phage peptides were pooled in equimolar quantities, and injected intravenously (final 1×10^10 pfu in 200 μl PBS) in tumor-bearing mice for two hour circulation, after which mice were anesthetized with 2.5% avertin and intracardially perfused with DMEM intracardially. The tumors and organs were collected in lysogeny broth (LB)+1% NP40, and the tissues were homogenized using a hand-held homogenizer for phage peptide rescue. Phages in the tissue lysates were amplified in E. coli, purified by precipitation with PEG-8000 and DNA was extracted using a DNA extraction kit (High Pure PCR Template Preparation Kit; Roche, Basel, Switzerland). Next-generation sequencing of phage genomic DNA evaluated the representation of each phage in input mixture, in tumor and control organs with Ion Torrent system (Thermo Fisher Scientific, Waltham, MA, USA). The next generation deep sequencing of phage library was done using Ion Torrent according to the manufacturer's protocol with slight modification. The FASTQ data from Ion Torrent was processed by a custom python script that identified the barcodes, constant flanking residues, and extracted the reads of the correct length.
# [4] = test system: U87-MG glioblastoma; details: i.v. equimolar mix, 2 h circulation
# Source text: as §2
# [5] = test system: WT-GBM tumor; details: i.v. equimolar mix, 2 h circulation
# Source text: as §2
# [6] = test system: normal brain; details: i.v. equimolar mix, 2 h circulation
# Source text: as §2
# [7] = test system: P13 tumor; details: i.v. equimolar mix, 2 h circulation
# Source text: as §2
# [8] = test system: P3 stem cell-like tumor; details: i.v. equimolar mix, 2 h circulation
# Source text: as §2
# [9] = test system: U87-MG xenograft; test: In vivo fluorescence imaging with the IVIS Spectrum system; set-up: species or system mice
# Experimental: Live imaging of PL3 peptide tumor homing was assessed by in vivo fluorescence imaging with the IVIS Spectrum imaging system (PerkinElmer, Waltham, MA) in U87-MG xenograft mice model (Male, 18-20 weeks of age). AgNPs with CF647 dye-labeled neutravidin coating was functionalized with biotinylated PL3 peptide (AgNP-PL3) or control biotin (AgNP). AgNP PL3 and AgNP particles were injected intravenously into the mice. For assessment of tumor PL3 targeted delivery and homing by IVIS, mice were placed in a dark imaging chamber under isoflurane anesthesia, and imaged with the following parameters. Specific excitation filter, 650 nm; emission filter, 665 nm; auto exposure time; binning, medium; field of view, 12; f/stop, 2; open filter. The images were captured at pre-injection (0 hours) and five-hour post-injection. The signal was expressed in total Radiant Efficiency [p/s]/[μW/cm^2]. The regions of interest (ROIs) were drawn covering the whole tumor in each mouse after tissue background correction, and radiant efficiency signal was quantitated. An automated spectral unmixing algorithm was used, images were analyzed by using Living Image 4.4 software (Caliper Life Sciences, Hopkinton, MA). Three animals per experimental group were analyzed. For the receptor blocking studies, PL3-AgNP injection was preceded by systemic pre-injection of blocking TNC-C and/or NRP1 antibodies (30 μg/mouse) 15 minutes prior to injection of the AgNPs.
# [10] = test system: PPC1 cells; test: Cell binding and internalization of CF555-labeled AgNPs; format: cell-based; details: NRP-1-positive PPC1, 1 h incubation
# Experimental: as §1
# [11] = test system: U87-MG cells; test: as above; format: cell-based, human; details: NRP-1-positive U87-MG, 1 h incubation
# Experimental: as §1
# [12] = test system: FN-EDB and TNC-C; test: Peptide-phage binding to FN-EDB- and TNC-C-coated magnetic beads; details: phage-displayed peptide
# Experimental: (§3) To identify bispecific peptides that interact with both TNC-C and FN-EDB, cross screens were performed on both targets. During the first round of selection, microtiter plates coated with 20 μg/ml recombinant purified TNC-C were blocked with PBS containing 1% bovine serum albumin (BSA), followed by incubation with 5×10^8 pfu of phages in PBS at 4° C. overnight, by washes to remove background, and by phage rescue and amplification in BLT5403 strain of E. coli (Novagen, EMD Biosciences, MA, USA) (Teesalu et al., Methods Enzymol. 503:35-56 (2012)). The following rounds of biopanning were carried on Ni-NTA Magnetic Agarose Beads (QIAGEN, Hilden, Germany) coated with hexahistidine-tagged FN-EDB (3 μg/μl beads) at room temperature. After 5 rounds of selection, a set of random clones was sequenced, and individual peptide-phage clones and control (G7 peptide-displaying or insertless) phages were incubated with FN-EDB and TNC-C-coated magnetic beads. RPARPAR phage (SEQ ID NO:5) and His-tagged NRP-1 b1b2 domain were used as positive control (Teesalu et al., Proc. Natl. Acad. Sci. U.S.A 106:16157-62 (2009)). To address the specificity of the peptide phage binding to the FN-EDB and TNC-C, the protein-coated beads were pre-incubated with 20 μg/ml blocking rabbit polyclonal antibodies.
# [13] = target: T2, NRP-1 b1b2 domain (Homo sapiens, UniProt O14786); test: PL1 phage binding to recombinant control protein NRP-1; details: phage-displayed peptide
# T2 construct: His-tagged NRP-1 b1b2 domain were used as positive control; His tag; made in house
# T2 sequence (O14786 273-586 limits assumed): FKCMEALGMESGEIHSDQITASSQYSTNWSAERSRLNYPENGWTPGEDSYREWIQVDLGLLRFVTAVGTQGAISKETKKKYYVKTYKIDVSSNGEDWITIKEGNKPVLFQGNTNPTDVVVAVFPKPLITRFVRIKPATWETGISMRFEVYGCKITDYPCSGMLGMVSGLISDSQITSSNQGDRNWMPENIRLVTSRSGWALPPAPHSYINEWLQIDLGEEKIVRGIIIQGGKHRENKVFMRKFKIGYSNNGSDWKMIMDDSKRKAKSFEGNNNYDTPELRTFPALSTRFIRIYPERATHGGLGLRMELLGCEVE
# Experimental: as §3
# [14] = test system: FN-EDB and TNC-C; test: Cell-free peptide binding assay (immobilized FAM-peptide, His-tagged protein, ELISA)
# Experimental: The FAM-labeled peptides were coated on ELISA plates (Nunc Maxisorp, Thermo Fisher Scientific Inc., MA, USA), blocked with PBS containing 1% BSA, and incubated with recombinant proteins at 2 μg/well in PBS for 6 h. The protein was detected using an anti-His-tag antibody, followed by horseradish peroxidase-conjugated secondary antibody, chromogenic reaction, and measurement of absorbance at 450 nm with a microplate reader (Tecan Austria GmbH, Gradig, Austria).
# [15] = test system: Neuropilin 1 b1b2 domain (NRP1) and Fn-EDB; test: PL2 phage binding to purified NRP1 together with Fn-EDB
# Experimental: For cell-free binding studies using individually amplified phage clones; phage was incubated with Fn-EDB coated magnetic beads as described above. RPARPAR phage on NRP-1-coated beads was used as a positive control (Teesalu et al., 2009), Nucleolin (NCL) and Tenascin C-C domain (TNC-C) were used as negative control. Phage clones displaying heptaglycine peptide (GGGGGGG, G7 (SEQ ID NO:20)) or insert less phage clones were used as negative controls.
# T1 sequence (P02751 with tags, fused parts or gaps): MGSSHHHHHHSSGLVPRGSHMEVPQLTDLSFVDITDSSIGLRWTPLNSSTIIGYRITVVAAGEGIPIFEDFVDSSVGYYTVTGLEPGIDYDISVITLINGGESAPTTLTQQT
Substance,"Representation of phage in tumors (fold G7 control phage), PC3 [3] [fold]","Representation of phage in tumors (fold G7 control phage), U87-MG [4] [fold]","Representation of phage in tumors (fold G7 control phage), WT-GBM [5] [fold]","Representation of phage in control brain tissue (fold G7 control phage), Norm. brain [6] [fold]","Representation of phage in tumors (fold G7 control phage), P13 [7] [fold]","Representation of phage in tumors (fold G7 control phage), P3 SCL [8] [fold]",also measured
AGRGRLVR [PL3],3.9,2.1,24.1,0.4,4.7,2.1,cellular uptake [1]: low background-like uptake; binding to fibronectin EDB-domain [2]: did not bind
"PL3-AgNPs: dye-labeled neutravidin-coated silver nanoparticles functionalized with biotinylated PL3 peptide (AGRGRLVR; also: biotinylated, bound to dye-labeled neutravidin-coated silver nanoparticles)",,,,,,,"accumulation in glioma lesions more than control non-peptide CF647-AgNP ([9]; 5 hours, i.v.): ~10 fold; tumor homing on coadministration with blocking antibodies ([9]; cocktail of both antibodies): almost completely inhibited the tumor accumulation; tumor homing on coadministration with blocking antibodies ([9]; rabbit polyclonal antibodies against either TNC-C or NRP-1): decrease in tumor homing; cellular uptake [10]: robustly endocytosed with perinuclear accumulation; cellular uptake [11]: robustly endocytosed with perinuclear accumulation"
PPRRGLIKLKTS [PL1],,,,,,,Binding Specificity [12]: TNC-C + FN-EDB; interaction of phage with recombinant control protein NRP-1 [13]: did not interact; binding to FN-EDB and TNC-C on phage and as synthetic FAM-labeled peptide [14]: retained the ability to bind to both FN-EDB and TNC-C
PPRRGLIKLKTSSNTKENSVVASLRP [PL5],,,,,,,Binding Specificity [12]: TNC-C + FN-EDB
RRLVRVA,0.9,0.6,1.4,0.1,0.4,0.3,
TSKQNSR [PL2],,,,,,,binding of phage-displayed peptide to Fn-EDB and NRP1 [15]: bind specifically to both Fn-EDB and NRP1
VGRVRFSRKLAAALE,1.2,0.7,2.5,0.1,0.5,0.4,
